# Measured values taken from patent US20220372542A1, “DETECTION OF ANALYTES BY PROTEIN SWITCHES” (ABBOTT DIABETES CARE INC., priority 2019, published 2022).
# B1: GDH-2028: Warfarin protein switch, SEQ ID NO: 15; mutations C96F; L252V (protein)
# chain: MYPDLKGKVVAITGAASGLGKAMAIRFGKEQAKVVINYYSNKQDPNEVKEEVIKAGGEAVVVQGDVTKEEDVKNIVQTAIKEFGTLDIMINNAGLFNPVPSHEMPLKDWDKVIGTNLTGAFLGSREAIKYFVENDIKGNVINMSSVHEVIPWPLASHYTASKGGMKLMTKTLALEYAPKGIRVNNIGPGAINTTINAEKFADPKQKADVESMIPMGYIGEPEEIAAVAAWLASKEASYVTGITLFADGGMTVYPSFQAGRG
# B2: GDH-2025: Warfarin protein switch, SEQ ID NO: 1; SEQ ID NO:11 with mutation C96F (protein)
# chain: AMYPDLKGKVVAITGAASGLGKAMAIRFGKEQAKVVINYYSNKQDPNEVKEEVIKAGGEAVVVQGDVTKEEDVKNIVQTAIKEFGTLDIMINNAGLFNPVPSHEMPLKDWDKVIGTNLTGAFLGSREAIKYFVENDIKGNVINMSSVHEVIPWPLASHYTASKGGMKLMTKTLALEYAPKGIRVNNIGPGAINTTINAEKFADPKQKADVESMIPMGYIGEPEEIAAVAAWLASKEASYVTGITLFADGGMTLYPSFQAGRG
# What was measured:
# [1] = Beaker stability (long-term stability) of protein switch sensors; type: physicochemical; settings: Sensor in 30 mM glucose in 100 mM PBS at 33° C., after 1 day
# Description: Beaker Stability. The beaker stability (long-term stability) of the sensor GDH-105 and the sensors comprising the protein switches GDH-2004, GDH-2007, GDH-2008, GDH-2009, GDH-2010, GDH-2011, GDH-2015, GDH-2018, GDH-2019, GDH-2005, GDH-2013, GDH-2016, and GDH-2024 described above were evaluated in 30 mM glucose in 100 mM PBS at 33° C. as shown in FIG. 8. After 4 days, each of the signals experienced a sensor drop (decreased stability for detecting glucose) at different rates, as shown in Table 10.
# Beaker Stability. The beaker stability (long-term stability) of the GDH-105, GDH-2025, GDH-2026, GDH-2027, and GDH-2028 sensors were evaluated in 30 mM glucose in 100 mM PBS at 33° C. as shown in FIG. 11. After 1 day, each of the signals experience sensor drop (decreased stability for detecting glucose) of different rates, as provided in Table 12.
# [2] = Warfarin inhibition of protein switch sensors in test beaker; type: biochemical; settings: 100 mM PBS 33° C., 10 mM NAD+; for effect of increasing warfarin concentrations on sensor signal: 5 mM glucose, 10, 30, 80, 180, 300 uM warfarin, FIGS. 12A, 12B, 13; for sensor response to glucose addition: glucose 5 mM
# Description: Warfarin Sensor. Experimental GDH-105 and GDH-2016 glucose-responsive active areas were prepared using a single-layer active area system. The GDH was obtained from Codexis, Redwood City, Calif. The active area was coated onto a carbon working electrode in a single layer composition (Table 8). Following deposition of the active area, the active area was cured for three days at RT.
# Experimental procedure. Testing of the GDH-105 and GDH-2016 sensors was conducted by immersing the electrode in a 100 mM PBS buffer solution at 33° C. NAD^+ (5 mM) supplied to a test beaker containing PBS buffer followed by the addition of glucose (1 mM).
# Evolved Warfarin sensors. GDH-105, GDH-2016, GDH-2025, GDH-2026, GDH-2027, and GDH-2028 glucose-responsive active areas were prepared using a single-layer active area system. The GDH was obtained from Codexis, Redwood City, Calif. The active area (0.33 mm^2) was coated onto a carbon working electrode in a single layer composition (Table 8). Following deposition of the active area, the active area was cured for three days at room temperature.
# Experimental procedure. Testing of the GDH-105, GDH-2016, GDH-2025, GDH-2026, GDH-2027, and GDH-2028 sensors was conducted by immersing the electrode in a 100 mM PBS buffer solution at 33° C. NAD^+(10 mM) supplied to a test beaker containing PBS buffer followed by the addition of glucose (5 mM).
# [3] = Beaker calibration: glucose sensitivity of protein switch sensors; type: biochemical; settings: Sensor active area 0.33 mm^2 with PVP membrane; 100 mM PBS, room temperature, 1-30 mM glucose
Molecule,Signal drop (1 day) [1],effect of increasing warfarin concentrations on sensor signal [2],sensor response to glucose addition [2],Sensitivity [3]
B1,−68%,inhibition,showed response to glucose addition,0.09 nA/mM
B2,−58%,inhibition,showed response to glucose addition,0.32 nA/mM
